What all share (assay): native MS
The target of experiment [1] is cpTMV without any mutation at the S65 position (tobacco mosaic virus).
The target in experiment [2] is cpTMV-S65-3NY (tobacco mosaic virus).
The target is the same in experiment [3]. The source holds these as a separate data set.
The target of experiment [4] is cpTMV-S65-pAF (tobacco mosaic virus).
The target in experiment [5] is cpTMV-S65C (tobacco mosaic virus).

“And” between values parts separate entries of the source, which are not always exact repeats. Equal values may be shown once. Read-outs that look alike come from different tables or passages of the source.

“cpTMV without any mutation at the S65 position” came in with a monomers per disk (monomers per disk) in experiment [1] of 16.
On to cpTMV-S65-3NY, for which the monomers per disk (monomers per disk) turned out to be 17 in experiment [2] and 16 in experiment [3].
Take cpTMV-S65-pAF: the monomers per disk (two-disk stack) (monomers per disk) in experiment [4] was 16 and 17.
In experiment [5], cpTMV-S65C registered a monomers per disk (monomers per disk) of 16.

The record behind these values is publication PMC10395586.
